These sequences were tested on Escherichia coli TOP10 (assay: shrunken log2 fold change of peptide-encoding DNA abundance (4.5 h post-induction vs induction); higher = less antimicrobial activity (less host growth inhibition)). Conditions: time post-induction: 4.5 h; library: site-saturation at positions 5, 18, 19, 20.
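Also: peptides expressed intracellularly from a pBAD plasmid library in pooled LB shake-flask culture, induced with 0.3% L-arabinose, DNA abundance read by NGS, three biological replicates, DESeq2 with apeglm shrinkage.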

Sequence | shrunken log2 fold change
RRIRARPPRLPRPRPRPCDDPRP | -0.0166
RRIRMRPPRLPRPRPRPRDHPRP | 0.324
RRIRTRPPRLPRPRPRPITIPRP | -0.151
RRIRRRPPRLPRPRPRPIQHPRP | 0.0238
RRIRVRPPRLPRPRPRPEWMPRP | 0.0845
RRIRQRPPRLPRPRPRPVKMPRP | -0.211
RRIRFRPPRLPRPRPRPKNCPRP | 1.35
RRIRDRPPRLPRPRPRPQTEPRP | 0.125
RRIRARPPRLPRPRPRPTWNPRP | 0.279
RRIRCRPPRLPRPRPRPPENPRP | 0.2
RRIRCRPPRLPRPRPRPHDIPRP | -0.00735
RRIRTRPPRLPRPRPRPIPFPRP | -0.325
RRIRCRPPRLPRPRPRPWYTPRP | -0.739
RRIRERPPRLPRPRPRPWIRPRP | -0.667
RRIRKRPPRLPRPRPRPGETPRP | 0.476
RRIRERPPRLPRPRPRPGFAPRP | 0.604
RRIRYRPPRLPRPRPRPFLVPRP | -1.03
RRIRRRPPRLPRPRPRPSRIPRP | 0.157
RRIRVRPPRLPRPRPRPDSTPRP | -0.0391
RRIRHRPPRLPRPRPRPSPWPRP | 0.0405
RRIRHRPPRLPRPRPRPCFIPRP | -0.385
RRIRARPPRLPRPRPRPFQPPRP | 0.0667
RRIRCRPPRLPRPRPRPSDAPRP | -0.0145
RRIRTRPPRLPRPRPRPPSTPRP | 0.186
RRIRMRPPRLPRPRPRPEGYPRP | 2.64

Sequence | shrunken log2 fold change
RRIRCRPPRLPRPRPRPKLNPRP | -0.265
RRIRSRPPRLPRPRPRPHLFPRP | -0.32
RRIRHRPPRLPRPRPRPKVSPRP | -0.112
RRIRCRPPRLPRPRPRPFCEPRP | 0.000102
RRIRPRPPRLPRPRPRPASMPRP | -0.295
RRIRERPPRLPRPRPRPCRQPRP | -0.157
RRIRWRPPRLPRPRPRPYSIPRP | -0.296
RRIRFRPPRLPRPRPRPRQPPRP | 0.68
RRIRVRPPRLPRPRPRPDVPPRP | -0.0976
RRIRQRPPRLPRPRPRPTHNPRP | 0.357
RRIRARPPRLPRPRPRPCMRPRP | 0.238
RRIRYRPPRLPRPRPRPGWTPRP | -0.103
RRIRPRPPRLPRPRPRPKTPPRP | 0.0677
RRIRMRPPRLPRPRPRPNCSPRP | 0.135
RRIRWRPPRLPRPRPRPVNLPRP | -0.291
RRIRNRPPRLPRPRPRPDGSPRP | 0.0143
RRIRDRPPRLPRPRPRPPPDPRP | 1.14
RRIRDRPPRLPRPRPRPHGKPRP | 0.0283
RRIRHRPPRLPRPRPRPYGAPRP | -0.48
RRIRMRPPRLPRPRPRPPEVPRP | 1.25
RRIRHRPPRLPRPRPRPKNVPRP | -0.0354
RRIRPRPPRLPRPRPRPESEPRP | -0.0127
RRIRYRPPRLPRPRPRPWNNPRP | -0.656
RRIRGRPPRLPRPRPRPQELPRP | 0.27
RRIRVRPPRLPRPRPRPCWKPRP | -0.00912

Sequence | shrunken log2 fold change
RRIRVRPPRLPRPRPRPNECPRP | -0.0835
RRIRRRPPRLPRPRPRPWFRPRP | 0.0331
RRIRYRPPRLPRPRPRPWYAPRP | -1.43
RRIRGRPPRLPRPRPRPYEEPRP | 0.106
RRIRERPPRLPRPRPRPSKIPRP | -0.506
RRIRVRPPRLPRPRPRPRTVPRP | 0.16
RRIRGRPPRLPRPRPRPMTTPRP | 1.16
RRIRCRPPRLPRPRPRPDAFPRP | 0.467
RRIRCRPPRLPRPRPRPMDQPRP | 0.337
RRIRYRPPRLPRPRPRPYGVPRP | -0.00992
RRIRFRPPRLPRPRPRPYLVPRP | -0.423
RRIRQRPPRLPRPRPRPGCQPRP | -0.103
RRIRSRPPRLPRPRPRPDTRPRP | -0.337
RRIRTRPPRLPRPRPRPVESPRP | 0.141
RRIRIRPPRLPRPRPRPARMPRP | 0.223
RRIRMRPPRLPRPRPRPTNIPRP | -0.0556
RRIRYRPPRLPRPRPRPEPVPRP | -0.00973
RRIRSRPPRLPRPRPRPMDQPRP | 0.362
RRIRFRPPRLPRPRPRPCGKPRP | -0.018
RRIRKRPPRLPRPRPRPCGPPRP | -0.0191
RRIRTRPPRLPRPRPRPRADPRP | 0.158
RRIRNRPPRLPRPRPRPDDSPRP | -0.263
RRIRKRPPRLPRPRPRPAIRPRP | -0.29
RRIRCRPPRLPRPRPRPLVHPRP | -0.075
RRIRKRPPRLPRPRPRPHCKPRP | -0.397

Source: the supplement of paper PMC9112550, “Optimization of the antimicrobial peptide Bac7 by deep mutational scanning” (BMC Biology, 2022)
